Laboratory results: US20130244232A1, “HIGH-EFFICIENCY CATALYSTS, PREPARATION AND USE THEREOF” (priority 2012, published 2013)
Read-outs that look alike come from different tables or passages of the source.

Assays:
[1] = Peroxidase activity: ABTS oxidation with H2O2 (formation of ABTS+• radical cation at 660 nm); format: biochemical; settings: for Specific activity: ABTS oxidation with H2O2, pH 6.5
Description: The peroxidase activity of the compound on the secondary substrate ABTS was evaluated by following the formation of the ABTS^+• radical cation, in the presence of H2O2.
The reaction was followed by using spectrophotometry, measuring the appearance of the products in the reaction medium. The formation of ABTS^+• cation radical was followed at 660 nm (λmax (ε)=660 nm (1.40×10^4 M^−1cm^−1)). The reaction was performed in 50% TFE (v/v) 100 mM phosphate buffer, pH 6.5, using a 2.0×10^−7 M catalyst concentration.
Kinetic parameters of the compound were determined by varying the H2O2 concentration using fixed concentrations of the reducing substrates, and vice versa.
In more details, in the experiments performed at various H2O2 concentrations (in the range 0.01÷ 200 mM) the ABTS concentration was kept constant at 0.1 mM. In the experiments performed at various ABTS concentrations (in the range 0.005÷ 0.1 mM) the H2O2 concentration was 50 mM.
The experiments were performed in 50% TFE (v/v) 100 mM phosphate buffer, pH 6.5. As described in the example 10, the catalytic process was evaluated by following the formation of the ABTS^+• radical cation at 660 nm (c=[…] cm^−1). Kinetic parameters of the compound were determined by varying the H2O2 concentration using fixed concentrations of the reducing substrates, and vice versa.
In more details, in the first experiment the ABTS and the conjugate concentrations were kept constant at 0.1 mM and 2 10^−7 M, respectively, and the H2O2 concentration was varied in the range 10-100 mM. In the second experiment, the H2O2 and the conjugate concentrations were fixed at 50 mM and 2 10^−7 M, respectively, and the ABTS concentration was varied in the range 0.005÷ 0.1 mM.

[2] = Peroxidase activity: guaiacol oxidation with H2O2 (tetraguaiacol formation at 470 nm); format: biochemical
Description: The peroxidase activity on the guaiacol substrate was evaluated by following the formation of guaiacol oxidation product, tetraguaiacol. Changes in the absorbance at 470 nm were measured, considering a ε470=2.66×10^4 M^−1cm^−1.
In details, in the experiments performed at various H2O2 concentrations (in the range 1÷ 40 mM), the guaiacol concentration was kept constant at 0.1 mM. In the experiments performed at various guaiacol concentrations, in the range 0.0025÷ 0.07 mM, the H2O2 concentration was 10 mM.

[3] = Phenol nitration (NaNO2/H2O2), HPLC analysis; format: biochemical; settings: 40 min, room temperature, substrate and oxidant 1.0 mM, 40 mM NO2−, 0.2 μM catalyst, pH 6.5, 50% TFE
Description: For the compound Fe(III)-3,7,12,17-tetramethyl-porphyrin-2(18)-N9epsilon-(Ace-Asp1-Glu2-Gln3-Gln4-Leu5-His6-Ser7-Gln8-Lys9-Arg10-Lys11-Ile12-Thr13-Leu14-NH2)-18(2)-N9epsilon-(Ace-Asp1-Glu2-Gln3-Gln4-Leu5-Ser6-Ser7-Gln8-Lys9-Arg10-NH2)-di-propionammide, whose synthesis is described in example 1, the ability to catalyze phenol nitration was evaluated. […] The concentrations of the starting material and products were determined from calibration curves constructed using commercial samples and 4-cyanophenol as internal standard. Standard incubation for phenol nitration were performed at 1 mM phenol in the presence of 0.2 μM catalyst, 20 mM NaNO2 and 3 mM H2O2 in phosphate buffer, pH 6.5, 50% TFE (v/v).
The reactions were performed at room temperature with an incubation time of 40 min. […] The yield of 4- and 2-nitrophenol at 40 min reaction time increased by increasing H2O2 NO2″ and phenol concentrations. The maximum yield of nitrophenols (4- and 2-) was obtained at a substrate and oxidant concentrations of 1.0 mM, and at 40 mM NO2^− concentration, respectively.

[4] = ABTS oxidation with H2O2, pH 7.0; cited from earlier work
[5] = in the presence of lactoperoxidase; cited from earlier work
[6] = ABTS oxidation with H2O2, pH 6.5, 50% TFE (v/v) 100 mM phosphate buffer
[7] = ABTS oxidation with H2O2, pH 6.5, 50% TFE (v/v) 100 mM phosphate buffer, read-out: Km^H2O2
[8] = AH2 = ABTS, pH 6.5, 50% TFE (v/v) 100 mM phosphate buffer, read-out: Km^AH2

What does the source list for “3,7,12,17-tetramethyl-porphyrin-2 (18)-N9epsilon-(Ace-Asp1-Glu2-Gln3-Gln4-Leu5-His6-Ser7-Gln8-Lys9-Arg10-Lys11-Ile12-Thr13-Leu14-NH2)-18(2)-N9epsilon-(Ace-Asp1-Glu2-Gln3-Gln4-Leu5-Gly6-Ser7-Gln8-Lys9-Arg10-NH2)-di-propionamide [Example 7]”?
Specific activity [1]: 7.976 mol/g/min; kcat [1, 6]: 468 s⁻¹; Km [1, 7]: 46000 µM; Km [1, 8]: 125 µM

Which Specific activity [1] does the source give for “3,7,12,17-tetramethyl-porphyrin-2(18)-N9epsilon-(Ace-Asp1-Glu2-Gln3-Gln4-Leu5-His6-Ser7-Gln8-Lys9-Arg10-Lys11-Ile12-Thr13-Leu14-NH2)-18(2)-N9epsilon-(Ace-Asp1-Glu2-Gln3-Gln4-Leu5-Ser6-Ser7-Gln8-Lys9-Leu10-NH2)-di-propionamide [Example 9]” here?
Its Specific activity is 2.890 mol/g/min.

And the kcat [1, 6]?
Its kcat is 169 s⁻¹.

And the Km [1, 7]?
Its Km is 20000 µM.

What about the Km [1, 8] of the same substance?
The Km was 29 µM.

For “3,7,12,17-tetramethyl-porphyrin-2(18)-N9epsilon-(Ace-Asp1-Glu2-Gln3-Gln4-Leu5-His6-Ser7-Gln8-Lys9-Arg10-Lys11-Ile12-Thr13-Leu14-NH2)-18(2)-N9epsilon-(Ace-Asp1-Leu2-Gln3-Gln4-Leu5-Ser6-Ser7-Gln8-Lys9-Arg10-NH2)-di-propionamide [Example 8]”, which Specific activity [1] is on record?
The Specific activity was 6.463 mol/g/min.

What about the kcat [1, 6] of the same substance?
The kcat was 381 s⁻¹.

What about the Km [1, 7] of the same substance?
Its Km is 96000 µM.

What about the Km [1, 8] of the same substance?
Its Km is 115 µM.

What does the source list for “3,7,12,17-tetramethyl-porphyrin-2(18)-N9epsilon-(Ace-Asp1-Glu2-Gln3-Gln4-Leu5-His6-Ser7-Gln8-Lys9-Leu10-Lys11-Ile12-Thr13-Leu14-NH2)-18(2)-N9epsilon-(Ace-Asp1-Glu2-Gln3-Gln4-Leu5-Ser6-Ser7-Gln8-Lys9-Arg10-NH2)-di-propionamide [Example 5]”?
Specific activity [1]: 11.72 mol/g/min; kcat [1, 6]: 685 s⁻¹; Km [1, 7]: 54000 µM; Specific activity ([1]; listed as Esempio 5): 11.716 mol/g/min; Km [1, 8]: 38 µM

With “3,7,12,17-tetramethylporphyrin-18(2)-propionicacid-2(18)-N9epsilon-(Ac-Asp1-Glu2-Gln3-Gln4-Leu5-His6-Ser7-Gln8-Lys9-Arg10-Lys11-Ile12-Thr13-Leu14-NH2)propionamide [Example 4]” as the substance, how does the Specific activity [1] read?
Its Specific activity is 17.86 mol/g/min.

And the kcat [1, 6]?
Its kcat is 688 s⁻¹.

And the Km [1, 7]?
The Km was 80000 µM.

And the Specific activity ([1]; listed as Esempio 4)?
Its Specific activity is 17.860 mol/g/min.

What about the Km [1, 8] of the same substance?
The Km was 130 µM.

Which results are given for “Fe(III)-3,7,12,17-tetramethyl-porphyrin-2(18)-N9epsilon-(Ace-Asp1-Glu2-Gln3-Gln4-Leu5-His6-Ser7-Gln8-Lys9-Arg10-Lys11-Ile12-Thr13-Leu14-NH2)-18(2)-N9epsilon-(Ace-Asp1-Glu2-Gln3-Gln4-Leu5-Ser6-Ser7-Gln8-Lys9-Arg10-NH2)-di-propionammide [Example 1]”?
Specific activity [1]: 6.269 mol/g/min; kcat [1, 6]: 370.9 ± 14 s⁻¹; kcat ([1]; ABTS oxidation with H2O2, pH 6.5, 50% TFE (v/v) 100 mM phosphate buffer, listed as Esempio 1): 371 s⁻¹; Km [1, 7]: 44000 µM; Km [1, 8]: 84 µM; Km ([1]; AH2 = ABTS, pH 6.5, 50% TFE, 2.0×10^−7 M catalyst, read-out: Km^AH2): 84 ± 2 µM; specific activity for ABTS oxidation ([1]; pH=6.5): 104 mmol/g/s; Km ([2]; AH2 = guaiacol): 9.2 ± 0.4 µM; kcat ([2]; guaiacol oxidation with H2O2): 8.0 ± 0.1 s⁻¹; specific activity for guaiacol oxidation relative to horseradish peroxidase ([2]; versus horseradish peroxidase): two times higher; total yield of nitrophenols (4- and 2-) [3]: about 14.8%

Which Specific activity [4] does the source give for “H-Cys-Ala-Gln-Cys-His-Thr-Val-Glu-OH (CAQCHTVE; heme covalently attached; printed: Cys-Ala-Gln-Cys-His-Thr-Val-Glu-) [MP8, microperoxidase, mono-adduct porphyrin obtained from proteolytic digestion of cytochromes c]” here?
Its Specific activity is 0.000104 mol/g/min.

And the kcat [4]?
Its kcat is 0.0026 s⁻¹.

Which results are given for “H-VQKCAQCHTVE-OH (cysteine pairing not given here) [MP11]”?
Specific activity [4]: 0.000419 mol/g/min; kcat [4]: 0.013 s⁻¹

With lactoperoxidase as the substance, how does the “total yield of nitrophenols relative to the compound of example 1” value [5] read?
Its value is “fourfold higher”.
